{
  "source": "paper PMC11476691",
  "about": "“ATM1, an essential conserved transporter in Apicomplexa, bridges mitochondrial and cytosolic [Fe-S] biogenesis” (PLOS Pathogens, 2024)",
  "molecules": {"B1": {"name": "PfATM1 (PfABCB6 / PfMDR6) (Plasmodium falciparum 3D7) (protein)", "chain": "RISDEFYSSFLYHSYIENLKSTKEYVYFIYLQDIYYNINIFKNKGRLYISNNGLCNDKLKDNNNNNNINSNNFGNSYNAYTKKKSFYHSFNDLNEAKEIRKKRKNEKSEKNIVEYLLCNIINPNENYHIQNIYNHNLNNNVSIEIHKKNDSVMYHYNNEKKTKTSKMTTDIKLKQINNVYIKYVPYKNKIITLACPNKYYPTLYRYFSSHTNKKEDAEENDKNKNININNVDNRYKEDFMYGCENKNDSEKHKKTTNNNFGDEFEKLKVKELDKILNKLEMLYDNKNNKMNINVKILGYIFKNFLLKNKELKRKIFCSLFFLLCSKMAIIYTPILLSTFIENVNLQKSLSNNIDIYSTNKSSVLLLCAYVFSRVLSSTMNELRNSVFSNISQKISTFVSKLFFYKIHNLNLTYILSKKNGELSFIFNRGCKSITNLLNVMVFQIIPIIIEFILYLYILTYKIHYTVSLVTCFNMFLYVLFTTLITKRRTIIRKHMNKAEQNTFNIFLDSIQNVEQVKYYTNEIHELKKFIKEQKKYEKEAINVQKSLSFLNFGQQIILNTNLFLCMYLTYLNIANDIFPFSYLILVNTLLFQLAMPLNMFGTIYRETKLSLVDIESMIKILVKKIKSPDYGNQMLIKNGNIKFENVYFKYPLNEDINGLEQNYQAKEKDPNIINNINNINNINNINNINNINSINNIYTFESNVKNISSTNMITSSINKLKKWYLDKVKDNKKNVQYNNNDVKKTNPNITKNLNKEIKENINTHLKNHKIINNSPNYNNNNYLFQNFTCNIENGEKVAIIGKSGSGKSSLIKLLLKFYEVNSGNIYIDNKNIDDIDLYTLRKNISVVPQDTILFNNTISYNIKYGNFQCTDKQMIQASIKAELHDKIMKMENKYDTIVGERGTKLSIGEKQRICIARCFLKDSKIIVLDEHASNLDNENKKAIEKALTKLCMGKTTFIITHVMENLKHMDKIIFFCGKNIYVGSHKNLMDDNHFYREYYDSKNNKML", "notes": "predicted mature form aa 43-1049 (MTS removed), E. coli YbeL hydrophilic domain (beta) and 6xHis fused at both N- and C-termini (pET28a beta-PfATM1-beta), E. coli C43, 152 kDa monomer, homodimer"}, "B2": {"name": "recombinant PfATM1 (6X-His tagged β-PfATM1-β) (natural protein, P. falciparum, UniProt Q8IDH9 43-1049, looked up)", "chain": "B1 chain", "notes": "P. falciparum ATM1 (PfATM1, ABCB6, MDR6), PF3D7_1352100, predicted mature form, aa 43-1049; Monomer 152 kDa, dimer about 300 kDa with the fusion domains; also called full-length PfATM1; PfATM1 dimer; source: E. coli C43, purified from membranes (DDM and Triton X-114, Ni-NTA, SEC Superdex S-200); not shown: E. coli YbeL hydrophilic fusion domain (β), N-terminal, kept; E. coli YbeL hydrophilic …"}, "B3": {"name": "PfATM1-CTD (domain or fragment, P. falciparum, UniProt Q8IDH9 807-1049, looked up)", "chain": "LKNHKIINNSPNYNNNNYLFQNFTCNIENGEKVAIIGKSGSGKSSLIKLLLKFYEVNSGNIYIDNKNIDDIDLYTLRKNISVVPQDTILFNNTISYNIKYGNFQCTDKQMIQASIKAELHDKIMKMENKYDTIVGERGTKLSIGEKQRICIARCFLKDSKIIVLDEHASNLDNENKKAIEKALTKLCMGKTTFIITHVMENLKHMDKIIFFCGKNIYVGSHKNLMDDNHFYREYYDSKNNKML", "notes": "P. falciparum ATM1 (PfATM1, ABCB6, MDR6), PF3D7_1352100, C-terminal ATPase domain, aa 807-1049; Cloned in pET23a; About 30 kDa, with a dimeric form of about 60 kDa on SDS-PAGE; also called C-terminal ATPase domain of PfATM1; source: E. coli BL21 (DE3), purified (Ni-NTA, SEC Superdex S-75)"}},
  "key": {"[1]": {"biological_target": "T1, PfIscU (Plasmodium falciparum, UniProt Q8IKT4)", "T1 construct": "gene IscU; GST fusion from pGEX-KG in E. coli BL21(DE3), GST removed by thrombin", "T1 sequence (Q8IKT4 1-162)": "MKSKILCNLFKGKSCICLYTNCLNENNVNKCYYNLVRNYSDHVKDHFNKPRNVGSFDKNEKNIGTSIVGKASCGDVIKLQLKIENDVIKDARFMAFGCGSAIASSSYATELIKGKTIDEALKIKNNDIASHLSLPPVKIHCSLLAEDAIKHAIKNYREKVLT", "assay": "chemical reconstitution, cluster donor assay, UV-VIS", "assay_type": "binding", "conditions": "anaerobic, 25 mM Tris-Cl pH 7.5, 100 mM NaCl"}, "[2]": {"biological_target": "T2, PfATM1-CTD (Plasmodium falciparum, UniProt Q8IDH9)", "T2 construct": "gene ABCB6", "T2 sequence (Q8IDH9 807-1049)": "B3 chain", "assay": "UV-VIS spectroscopy", "assay_type": "binding", "conditions": "as purified; lower intensity than full length"}, "[3]": {"biological_target": "T3, PfIscA2 (Plasmodium falciparum, UniProt O97297)", "T3 construct": "gene IscA2; GST fusion from pGEX-KG in E. coli C43, GST removed by thrombin", "T3 sequence (O97297 1-404)": "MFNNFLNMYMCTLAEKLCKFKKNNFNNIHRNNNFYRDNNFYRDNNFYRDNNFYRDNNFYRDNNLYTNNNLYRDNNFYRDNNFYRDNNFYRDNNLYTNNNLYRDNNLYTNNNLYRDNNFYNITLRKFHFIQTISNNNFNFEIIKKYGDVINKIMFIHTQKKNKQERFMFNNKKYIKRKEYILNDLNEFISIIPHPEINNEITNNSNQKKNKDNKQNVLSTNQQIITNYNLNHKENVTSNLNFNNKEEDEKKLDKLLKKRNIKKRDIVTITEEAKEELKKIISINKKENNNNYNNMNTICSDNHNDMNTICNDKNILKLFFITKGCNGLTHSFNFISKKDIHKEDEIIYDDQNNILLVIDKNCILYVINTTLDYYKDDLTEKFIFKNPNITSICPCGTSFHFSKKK", "assay": "chemical reconstitution, cluster donor assay, UV-VIS", "assay_type": "binding", "conditions": "anaerobic, 25 mM Tris-Cl pH 7.5, 100 mM NaCl"}, "[4]": {"substrate": "Nc1ncnc2c1ncn2[C@@H]1O[C@H](COP(=O)(O)OP(=O)(O)OP(=O)(O)O)[C@@H](O)[C@H]1O", "assay": "ATPase, phosphate release (EnzChek MESG/PNP)", "assay_type": "biochemical, Plasmodium falciparum", "conditions": "500 nM holo-PfATM1, increasing ATP, no GSSG"}, "[5]": {"biological_target": "the molecule itself", "assay": "SEC + native gel or EMSA; Superdex S-200; fractions electrophoresed on 6% native-PAGE; dimer to monomers"}, "[6]": {"biological_target": "the molecule itself", "assay": "SDS-PAGE of the purified protein; purified PfATM1-CTD on Coomassie-stained SDS-PAGE and western blot with anti-6XHis Ab; dimer of about 60 kDa beside the monomer of about 30 kDa; broken with DTT and urea"}},
  "data": [
    {"molecule": "[S]12[Fe]3[S]4[Fe]1[S]1[Fe]2[S]3[Fe]41", "note": "[[4Fe-4S]]", "values": [
      {"measurement": "chemical reconstitution, cluster donor assay, UV-VIS", "setting": "[1]", "value": "Reconstituted PfIscU and PfIscA2 carrying [4Fe-4S] were then used as cluster donors"},
      {"measurement": "UV-VIS spectroscopy", "setting": "[2]", "value": "A lower intensity [4Fe-4S] peak was also observed in PfATM1-CTD"},
      {"measurement": "chemical reconstitution, cluster donor assay, UV-VIS", "setting": "[3]", "value": "Reconstituted PfIscU and PfIscA2 carrying [4Fe-4S] were then used as cluster donors"}
    ]},
    {"molecule": "B1", "values": [
      {"measurement": "Km", "setting": "[4]", "value": "178.9 ± 34.86", "unit": "µM"},
      {"measurement": "kcat", "setting": "[4]", "value": "0.129 ± 0.00767", "unit": "s⁻¹"}
    ]},
    {"molecule": "B2", "values": [
      {"measurement": "stoichiometry N", "setting": "[5]", "value": 2}
    ]},
    {"molecule": "B3", "values": [
      {"measurement": "stoichiometry N", "setting": "[6]", "value": 2}
    ]}
  ]
}
